In US7067474B1, “Agents for treating human illnesses based on β-catenin, and the production and use thereof” (Max-Delbruck-Centrum fur Molekulare Medizin, priority 1998, dated 2006):
Positions count from the first letter of the chain named.

T1: APC (20 amino acid repeats) (Homo sapiens, UniProt P25054)
T1 construct: for the amino acids Ser1259Asp 1400 (APC 20 amino acid repeats); expressed in transfected cells; host or cells: yeast (two-hybrid, Matchmaker, Clontech)
T1 sequence (P25054 1253-1394 limits assumed): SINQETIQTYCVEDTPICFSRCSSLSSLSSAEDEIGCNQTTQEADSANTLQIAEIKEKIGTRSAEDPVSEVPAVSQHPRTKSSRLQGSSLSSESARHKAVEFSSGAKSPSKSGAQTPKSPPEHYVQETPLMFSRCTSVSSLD

T2: APC (15 amino acid repeats) (Homo sapiens, UniProt P25054)
T2 construct: of human APC for the amino acids His1012–Glu1215 (APC 15 amino acid repeats); expressed in transfected cells; host or cells: yeast (two-hybrid, Matchmaker, Clontech)
T2 sequence (P25054 1006-1209 limits assumed): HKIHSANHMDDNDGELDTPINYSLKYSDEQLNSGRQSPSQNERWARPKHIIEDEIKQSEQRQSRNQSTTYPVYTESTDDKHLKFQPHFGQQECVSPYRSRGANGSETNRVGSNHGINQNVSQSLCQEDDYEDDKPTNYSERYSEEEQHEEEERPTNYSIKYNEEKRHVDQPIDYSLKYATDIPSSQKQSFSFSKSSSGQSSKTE

B1: Lys 345: human β-catenin mutant, Lys 345 substituted by alanine (arm 5) (protein)
chain: LHNLSHHREGLLAIFKSGGIPALVKMLGSPVDSVLFYAITTLHNLLLHQEGAKMAVRLAGGLQKMVALLNKTNVKFLAITTDCLQILAYGNQESKLIILASGGPQALVNIMRTYTYEKLLWTTSRVLAVLSVCSSNKPAIVEAGGMQALGLHLTDPSQRLVQNCLWTLRNLSDAATKQEGMEGLLGTLVQLLGSDDINVVTCAAGILSNLTCNNYKNKMMVCQVGGIEALVRTVLRAGDREDITEPAICALRHLTSRHQEAEMAQNAVRLHYGLPVVVKLLHPPSHWPLIKATVGLIRNLALCPANHAPLREQGAIPRLVQLLVRAHQDTQRRTSMGGTQQQFVEGVRMEEIVEGCTGALHILARDVHNRIVIRGLNTIPLFVQLLYSPIENIQRVAAGVLCELAQDKEAAEAIEAEGATAPLTELLHSRNEGVATYAAAVLFRMSEDKPQDYKKRLSVELTSSLFRTEPMAWNETADLGLDIGAQGEPLGYRQDDPSYRSFHSGGYGQDALGMDPMMEHEMGGHHPGADYPVDGLPDLGHAQDLMDGLPPGDSNQLAWFDTDL
modifications: left off: large carriers; small tags and cut ends
B2: Lys 354: human β-catenin mutant, Lys 354 substituted by alanine (arm 6) (protein)
chain: B1 chain with A128K, K137A
modifications: left off: large carriers; small tags and cut ends
B3: His 260: human β-catenin mutant, His 260 substituted by alanine (arm 3) (protein)
chain: B1 chain with H43A, A128K
modifications: left off: large carriers; small tags and cut ends

Experiments:
[1] = biological target: conductin amino acids Ala342-Arg465 fused to Lex-A (vector BTM 116) (UniProt P0A7C2); test: yeast 2-hybrid, β-galactosidase reporter; percent of wild type β-catenin
[2] = biological target: T1, APC (20 amino acid repeats); test: yeast 2-hybrid: interaction of β-catenin mutants with APC 20 amino acid repeats; format: binding; settings: yeast 2-hybrid, alanine mutants
Experimental: (§1) The mutagenesis of β-catenin in the armadillo repeats 3–8 was carried out by means of the “mutagenesis kit” of the company Clontech according to the producer's record and the mutants were checked by sequencing (FIG. 5). In all mutants the original amino acid was substituted by alanine. For analyzing the interactions the cDNA of human β-catenin (armadillo repeat 3 up to the C-terminal end of the protein) coding for the amino acids Leu218–Leu7 μl or its mutants was cloned into the fusion vector for the activation domain of Gal-4 (pGAD424, Clontech). The cDNA for the binding domains of the interaction partners was cloned into the Lex-A fusion vector BTM 116. To this end, the cDNA of LEF-1 for the amino acids 1–99, conductin for the amino acids Ala342–ARG465; of human APC for the amino acids His1012–Glu1215 (APC 15 amino acid repeats) and for the amino acids Ser1259Asp 1400 (APC 20 amino acid repeats) and E-cadherin for the amino acids Gin773–Asp884 (cytoplasmatic domain) were amplified with the respective primers PCR. The interaction of the Lex-A hybrids with β-catenin and its mutants was quantified by means of the β-galactosidase reporter activity in the yeast 2-hybrid system (report: “Matchmaker”. Clontech) (Tab. 2 and FIG. 6).

[3] = biological target: T2, APC (15 amino acid repeats); test: yeast 2-hybrid: interaction of β-catenin mutants with APC 15 amino acid repeats; format: binding; settings: yeast 2-hybrid, alanine mutants
Experimental: as §1

[4] = biological target: T3, conductin (Mus musculus, UniProt O88566); test: yeast 2-hybrid: interaction of β-catenin mutants with conductin; format: binding; settings: yeast 2-hybrid, alanine mutants
T3 construct: conductin for the amino acids Ala342–ARG465; expressed in transfected cells; host or cells: yeast (two-hybrid, Matchmaker, Clontech)
Experimental: as §1

T3 sequence (O88566 343-465 limits assumed): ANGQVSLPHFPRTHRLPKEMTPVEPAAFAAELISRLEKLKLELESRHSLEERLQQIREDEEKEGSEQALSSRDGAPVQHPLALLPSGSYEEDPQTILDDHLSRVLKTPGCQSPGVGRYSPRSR
Sequence of conductin amino acids Ala342-Arg465 fused to Lex-A (vector BTM 116) (P0A7C2 other isoform, or with tags, fused parts or gaps limits assumed, form in doubt): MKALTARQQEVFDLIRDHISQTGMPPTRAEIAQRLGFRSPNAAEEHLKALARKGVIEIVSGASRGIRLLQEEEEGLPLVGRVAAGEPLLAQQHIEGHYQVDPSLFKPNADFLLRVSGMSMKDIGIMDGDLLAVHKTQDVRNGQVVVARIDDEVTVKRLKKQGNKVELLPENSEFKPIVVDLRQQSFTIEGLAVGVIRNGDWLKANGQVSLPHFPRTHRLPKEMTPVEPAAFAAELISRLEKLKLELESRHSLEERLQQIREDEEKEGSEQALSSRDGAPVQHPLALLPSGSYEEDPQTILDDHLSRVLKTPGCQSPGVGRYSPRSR

Molecule | share of the interaction with wild type β-catenin in percent [1] [%] | Interaction With APC-20, share of wild type β-catenin interaction [2] | Interaction With APC-15, share of wild type β-catenin interaction [3] | Interaction With Conductin, share of wild type β-catenin interaction [4] [%]
human β-catenin (Leu218-Leu781) mutant Arg 457 to alanine, Gal-4 activation domain fusion (from UniProt P35222 218-781) | 36 | – | – | –
human β-catenin (Leu218-Leu781) mutant Lys 394 to alanine, Gal-4 activation domain fusion (from UniProt P35222 218-781) | 42 | – | – | –
B1 | – | 0% | — (Interactions marked by — correspond to 60–100% of the wild type interaction) | 22
B2 | – | — (Interactions marked by — correspond to 60–100% of the wild type interaction) | 54% | 43
B3 | – | 40% | – | 10
